Patent US20090098106A1 (YEDA RESEARCH AND DEVELOPMENT, published 2009)

T1: TRAF2 (UniProt Q12933 1-501, limits assumed)
T1 sequence (looked up): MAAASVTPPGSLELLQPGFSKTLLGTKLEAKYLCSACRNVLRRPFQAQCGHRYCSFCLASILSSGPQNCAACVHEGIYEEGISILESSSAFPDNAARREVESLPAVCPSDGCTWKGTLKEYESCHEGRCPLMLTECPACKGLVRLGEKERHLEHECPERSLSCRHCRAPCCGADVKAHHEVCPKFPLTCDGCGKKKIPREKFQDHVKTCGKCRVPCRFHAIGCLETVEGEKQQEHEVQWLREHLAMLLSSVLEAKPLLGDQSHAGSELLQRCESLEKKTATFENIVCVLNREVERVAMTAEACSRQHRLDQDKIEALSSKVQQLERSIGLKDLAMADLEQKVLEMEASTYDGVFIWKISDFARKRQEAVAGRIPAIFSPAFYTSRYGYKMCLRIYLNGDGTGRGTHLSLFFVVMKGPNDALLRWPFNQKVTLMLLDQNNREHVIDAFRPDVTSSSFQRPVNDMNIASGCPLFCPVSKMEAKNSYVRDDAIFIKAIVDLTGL

B1: HC8 (α7) subunit of the human 20S proteasome (other, UniProt P25788 1-255, looked up)
chain: MSSIGTGYDLSASTFSPDGRVFQVEYAMKAVENSSTAIGIRCKDGVVFGVEKLVLSKLYEEGSNKRLFNVDRHVGMAVAGLLADARSLADIAREEASNFRSNFGYNIPLKHLADRVAMYVHAYTLYSAVRPFGCSFMLGSYSVNDGAQLYMIDPSGVSYGYWGCAIGKARQAAKTEIEKLQMKEMTCRDIVKEVAKIIYIVHDEVKDKAFELELSWVGELTNGRHEIVPKDIREEAEKYAKESLKEEDESDDDNM
notes: Yeast two-hybrid: prey from a human bone marrow library, re-cloned into pGADT7; Co-immunoprecipitation: N-terminal HIS tag and/or C-terminal myc tag (pCDNA3); also called human C8
B2: NIK-N terminus (amino acids 1-367) (other)
chain: MAVMEMACPGAPGSAVGQQKELPKPKEKTPPLGKKQSSVYKLEAVEKSPVFCGKWEILNDVITKGTAKEGSEAGPAAISIIAQAECENSQEFSPTFSERIFIAGSKQYSQSESLDQIPNNVAHATEGKMARVCWKGKRRSKARKKRKKKSSKSLAHAGVALAKPLPRTPEQESCTIPVQEDESPLGAPYVRNTPQFTKPLKEPGLGQLCFKQLGEGLRPALPRSELHKLISPLQCLNHVWKLHHPQDGGPLPLPTHPFPYSRLPHPFPFHPLQPWKPHPLESFLGKLACVDSQKPLPDPHLSKLACVDSPKPLPGPHLEPSCLSRGAHEKFSVEEYLVHALQGSVSSSQAHSLTSLAKTWAARGSRS
notes: Yeast two-hybrid bait in pGBKT7
B3: NIK kinase domain (kinase motif, amino acids 400-650) (other)
chain: ATHQLRLGRGSFGEVHRMEDKQTGFQCAVKKVRLEVFRAEELMACAGLTSPRIVPLYGAVREGPWVNIFMELLEGGSLGQLVKEQGCLPEDRALYYLGQALEGLEYLHSRRILHGDVKADNVLLSSDGSHAALCDFGHAVCLQPDGLGKSLLTGDYIPGTETHMAPEVVLGRSCDAKVDVWSSCCMMLHMLNGCHPWTQFFRGPLCLKIASEPPPVREIPPSCAPLTAQAIQEGLRKEPIHRVSAAELGGK
notes: also called kinase motif of NIK

Tests used:
[1] = biological target: T2, NF-κB inducing kinase (NIK), human, full length (human, UniProt Q99558 1-947); assay: yeast two-hybrid, β-gal colour, strain SFY526 (bait NIK, prey HC8)
T2 construct: Yeast two-hybrid: cloned into pGBKT7 as bait (fusion partner not spelled out); Co-immunoprecipitation: N-terminal 6 myc tag (pCS3MTNIK) in 293T cells, or His tag in HeLa cells; also called intact NIK; wild type NIK
Text: (§1) Yeast 2 Hybrid Screening Assays: NIK or its deletions were cloned into pGBKT7 vector as bait and the preys were re-cloned into pGADT7 vector for assay in the yeast strain SFY526. The system used for screening was the Matchmaker version III (clontech). The prey was pretransformed human bone marrow library (cat# HY4053AH) pooled from 51 males/females in the age range 22-70. It belongs to a new generation of 2 hybrid libraries that offers high stringent quadruple drop out (QDO) selection along with α-gal assay. Clones growing on plates without LEU, TRP, HIS and ADE were reconfirmed by α-gal assay. Plasmids of the positive clones were prepared by lysis of the yeast cells with detergent and mechanical stress followed by phenol extraction and ethanol precipitation of the DNA. Encoded inserts from the plasmids were amplified by PCR with the primers specific for the library vector pACT2.
(§2) A yeast 2 hybrid screening was effected using intact NIK cDNA (GenBank Accession No. Y10256; SEQ ID NO: 5), NIK-C-terminus (amino acids 624-947 of SEQ ID NO: 5) or NIK-N terminus (amino acids 1-367) as a prey. The most prevalent prey which was found in these screenings was the α7 subunit (HC8) (GenBank Accession No. XM_{—}050947). […]

[2] = biological target: T3, NIK-C-terminus (amino acids 624-947 of SEQ ID NO: 5) (human, UniProt Q99558 624-947); assay: yeast two-hybrid, β-gal colour, strain SFY526 (bait NIK-C-ter, prey HC8)
T3 construct: Yeast two-hybrid bait in pGBKT7 (fusion partner not spelled out)
T3 sequence (Q99558 624-947): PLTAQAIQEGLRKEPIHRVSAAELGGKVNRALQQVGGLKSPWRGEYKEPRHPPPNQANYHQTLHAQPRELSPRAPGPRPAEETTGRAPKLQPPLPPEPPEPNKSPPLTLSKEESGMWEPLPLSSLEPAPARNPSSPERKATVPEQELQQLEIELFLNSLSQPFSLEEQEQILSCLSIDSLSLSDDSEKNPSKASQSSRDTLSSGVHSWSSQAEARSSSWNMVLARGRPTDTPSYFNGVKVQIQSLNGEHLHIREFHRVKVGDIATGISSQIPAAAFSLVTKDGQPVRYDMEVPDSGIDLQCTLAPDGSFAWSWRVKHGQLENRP
Text: as §1, §2

[3] = biological target: B1; assay: yeast two-hybrid, β-gal colour, strain SFY526 (bait NIK-N-ter, prey HC8)
Text: as §1, §2

TRAF2 = biological target: T1, TRAF2; assay: yeast two-hybrid, β-gal colour, strain SFY526
[4] = biological target: B1; assay: co-immunoprecipitation from HeLa cells with anti-NIK monoclonal antibody, Western blot

B1
binding result [1]: binds | binding result [2]: binds

B2
binding result [3]: binds | binding result (TRAF2): no binding

B3
binding result [4]: no binding
